Test [1] has as its target human TrkC expressed on HEK-293 cells (human) (UniProt Q16288). Briefly: cell-based or functional assay.
Test [2] has as its target human TrkA expressed on HEK-293 cells (human) (UniProt P04629). Briefly: cell-based or functional assay.
Test [3] has as its target human TrkB (full length), expressed on the surface of HEK-293 cells (human, UniProt Q16620 32-822). Briefly: cell-based or functional assay.
Test [4] deals with T1, rhTrkB-EDC-Fc: recombinant protein that includes the extracellular domain of human TrkB fused to the Fc … (human, UniProt Q16620 32-430).
T1 construct: bought (R&D system, Cat. No. 688-TK); also called human TrkB (ELISA); not shown: Fc region of human IgG1
T1 sequence (Q16620 32-430): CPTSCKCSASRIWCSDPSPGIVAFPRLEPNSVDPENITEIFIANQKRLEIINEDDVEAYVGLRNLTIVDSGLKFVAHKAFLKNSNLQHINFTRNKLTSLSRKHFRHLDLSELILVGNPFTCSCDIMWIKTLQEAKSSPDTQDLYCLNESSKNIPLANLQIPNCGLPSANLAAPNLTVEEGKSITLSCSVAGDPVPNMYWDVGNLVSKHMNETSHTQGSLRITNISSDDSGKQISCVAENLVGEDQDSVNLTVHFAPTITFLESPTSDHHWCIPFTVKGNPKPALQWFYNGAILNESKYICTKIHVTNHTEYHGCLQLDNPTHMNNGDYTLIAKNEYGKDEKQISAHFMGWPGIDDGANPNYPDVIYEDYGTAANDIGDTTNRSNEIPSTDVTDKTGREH
Briefly: competition ELISA: rhTrkB-EDC-Fc binding to coated BDNF.

Test [5] concerns the target T1, rhTrkB-EDC-Fc: recombinant protein that …. Briefly: ELISA on coated rhTrkB-EDC-Fc (ED50). A general note: In an ELISA, binding on a coated surface is turned into a signal by an enzyme label.

In general, IC50 refers to the concentration that inhibits the measured activity by half. As usually defined, the EC50 is the midpoint of the concentration-response curve.

Sequence of human TrkB (full length), expressed on the surface of HEK-293 cells (Q16620 other isoform, or with tags, fused parts or gaps limits assumed): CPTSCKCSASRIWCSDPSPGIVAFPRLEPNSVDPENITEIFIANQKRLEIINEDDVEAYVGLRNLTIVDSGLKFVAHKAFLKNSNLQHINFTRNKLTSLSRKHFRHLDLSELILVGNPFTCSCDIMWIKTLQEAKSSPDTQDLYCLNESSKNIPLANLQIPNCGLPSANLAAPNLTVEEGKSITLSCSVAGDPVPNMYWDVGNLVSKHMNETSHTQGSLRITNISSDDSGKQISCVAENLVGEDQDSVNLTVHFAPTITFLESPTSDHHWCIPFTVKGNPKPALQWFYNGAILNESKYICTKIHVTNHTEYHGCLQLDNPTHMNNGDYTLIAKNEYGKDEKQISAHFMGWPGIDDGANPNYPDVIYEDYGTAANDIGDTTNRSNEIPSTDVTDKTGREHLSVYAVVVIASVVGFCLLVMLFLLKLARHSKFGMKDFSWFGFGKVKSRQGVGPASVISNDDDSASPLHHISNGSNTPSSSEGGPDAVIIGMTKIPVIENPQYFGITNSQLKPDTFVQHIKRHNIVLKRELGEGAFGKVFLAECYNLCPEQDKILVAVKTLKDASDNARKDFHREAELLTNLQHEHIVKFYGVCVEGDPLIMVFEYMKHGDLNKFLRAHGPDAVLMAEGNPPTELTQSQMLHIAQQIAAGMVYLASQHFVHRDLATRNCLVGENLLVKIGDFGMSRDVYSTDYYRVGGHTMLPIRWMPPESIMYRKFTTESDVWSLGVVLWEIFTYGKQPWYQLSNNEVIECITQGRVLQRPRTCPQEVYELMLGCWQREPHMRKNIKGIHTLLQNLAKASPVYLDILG
Sequence of human TrkC expressed on HEK-293 cells (human) (Q16288 32-839 S70N limits assumed): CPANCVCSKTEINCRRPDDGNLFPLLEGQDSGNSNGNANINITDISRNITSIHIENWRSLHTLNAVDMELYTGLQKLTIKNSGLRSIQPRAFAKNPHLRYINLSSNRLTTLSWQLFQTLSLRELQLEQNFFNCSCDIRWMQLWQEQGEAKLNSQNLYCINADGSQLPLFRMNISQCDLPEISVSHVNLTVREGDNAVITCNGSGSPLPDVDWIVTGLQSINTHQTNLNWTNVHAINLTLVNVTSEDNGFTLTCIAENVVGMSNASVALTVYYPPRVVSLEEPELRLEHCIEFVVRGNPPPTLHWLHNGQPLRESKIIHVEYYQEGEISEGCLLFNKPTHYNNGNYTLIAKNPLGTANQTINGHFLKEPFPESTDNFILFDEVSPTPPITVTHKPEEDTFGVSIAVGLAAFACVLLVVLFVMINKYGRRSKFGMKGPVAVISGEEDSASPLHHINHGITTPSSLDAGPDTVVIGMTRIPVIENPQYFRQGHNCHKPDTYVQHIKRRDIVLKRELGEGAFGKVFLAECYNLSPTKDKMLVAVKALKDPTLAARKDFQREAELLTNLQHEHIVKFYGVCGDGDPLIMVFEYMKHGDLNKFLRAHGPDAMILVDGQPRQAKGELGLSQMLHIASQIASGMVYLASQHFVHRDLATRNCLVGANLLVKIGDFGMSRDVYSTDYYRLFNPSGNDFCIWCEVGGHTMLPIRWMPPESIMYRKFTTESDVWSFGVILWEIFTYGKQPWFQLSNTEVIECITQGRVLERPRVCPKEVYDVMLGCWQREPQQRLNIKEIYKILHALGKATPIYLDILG
Sequence of human TrkA expressed on HEK-293 cells (human) (P04629 33-796 limits assumed): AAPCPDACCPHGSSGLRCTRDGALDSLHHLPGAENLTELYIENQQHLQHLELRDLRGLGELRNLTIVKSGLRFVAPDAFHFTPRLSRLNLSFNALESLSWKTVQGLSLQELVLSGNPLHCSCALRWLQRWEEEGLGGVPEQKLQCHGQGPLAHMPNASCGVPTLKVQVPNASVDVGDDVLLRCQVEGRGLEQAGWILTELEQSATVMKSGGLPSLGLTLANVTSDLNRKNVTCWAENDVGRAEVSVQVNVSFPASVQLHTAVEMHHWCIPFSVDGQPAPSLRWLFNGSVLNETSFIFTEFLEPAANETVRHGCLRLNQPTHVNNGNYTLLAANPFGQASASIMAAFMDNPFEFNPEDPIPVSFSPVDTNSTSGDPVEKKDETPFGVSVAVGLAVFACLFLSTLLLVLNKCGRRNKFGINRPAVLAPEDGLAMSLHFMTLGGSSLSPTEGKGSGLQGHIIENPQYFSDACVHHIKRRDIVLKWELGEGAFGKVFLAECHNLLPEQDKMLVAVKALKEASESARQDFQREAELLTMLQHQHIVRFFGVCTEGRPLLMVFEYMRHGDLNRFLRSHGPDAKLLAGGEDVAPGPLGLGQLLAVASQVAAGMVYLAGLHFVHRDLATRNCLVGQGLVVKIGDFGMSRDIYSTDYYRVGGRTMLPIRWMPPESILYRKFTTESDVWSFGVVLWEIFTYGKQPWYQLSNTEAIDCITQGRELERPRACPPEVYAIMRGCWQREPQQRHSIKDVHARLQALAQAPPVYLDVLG

Regarding NT-3 (ligand), the TrkC luciferase assay: signal at 300 ng/ml NT-3 (fold over basal) in test [1] turned out to be 6.
As to NGF (ligand), the TrkA luciferase assay: signal at 300 ng/ml NGF (fold over basal) in test [2] stood at 6.

B1: 4C7 (antibody)
chain 1: QVQLVQSGAEVKKPGASVKVSCKASGYTFTNYVILWVRQAPGQGLEWMGYINPYNDGTKYNEKFKGRVTMTRDTSTSTVYMELSSLRSEDTAVYYCARLLKYRRFSYYAIDYWGQGTTVTVSS
chain 2: DIQMTQSPSSLSASVGDRVTITCRASENVYSNLAWYQQKPGKAPKLLIYAASNLQSGVPSRFSGSGSGTDFTFTISSLQPEDIATYYCQHFWGSPFTFGQGTKLEIK
As for B1, the “luciferase assay, HEK-293 cells expressing rhTrkB: EC50” value in test [3] is approximately 0.1 nM. Moreover, in test [4], the IC50 was 0.3 nM. The EC50 in test [5] came to 0.017 nM.

B2: BDNF (ligand, UniProt P23560 129-247, looked up)
chain: HSDPARRGELSVCDSISEWVTAADKKTAVDMSGGTVTVLEKVPVSKGQLKQYFYETKCNPMGYTKEGCRGIDKRHWNSQCRTTQSYVRALTMDSKKRIGWRFIRIDTSCVCTLTIKRGR
Take B2: the “luciferase assay, HEK-293 cells expressing rhTrkB: signal at 200 ng/ml BDNF” value in test [3] came to 6.2 fold over basal.

The record behind these values is US20070059304A1 (Pfizer, published 2007).
